These results are taken from patent US20080125365A1 (UNIVERSITY OF IOWA RESEARCH FOUNDATION, published 2008).

A value given as a limit tells only on which side of the number the result lay.

For assay [1], the target named is recombinant soluble TLR4 extracellular domain (amino acids 24-634), FLAG-tagged (UniProt O00206). As to the kind of experiment: co-expression with TLR4ECD, harvested medium incubated with [3H]LOS:sCD14, gel filtration.
Assay [2] has as its target T1, recombinant soluble TLR4 extracellular domain (amino acids 24-634), FLAG-tagged (UniProt O00206 24-634).
T1 construct: range 24-634; Used as concentrated conditioned medium of HEK293T cells, not purified; also called TLR4ECD; FLAG-TLR4ECD; not shown: N-terminal FLAG tag from pFLAG-CMV
Kind of assay: saturation binding of [3H]LOS:MD-2 (25,000 cpm/pmol) to soluble TLR4ECD, complex resolved by gel filtration. For orientation: In gel filtration, larger molecules generally elute earlier.

The target of assay [3] is T1, recombinant soluble TLR4 extracellular …. Kind of assay: [3H]LOS:MD-2 F126A incubated 30 min at 37 C with concentrated TLR4ECD medium, Mr ~190,000 complex by gel filtration, Scatchard analysis.
Assay [4] deals with T2, TLR4 stably expressed on HEK293 cells (HEK/TLR4) (UniProt O00206 24-839, limits assumed).
T2 construct: whole, on cells; Cells from Eisai Research Institute (Yang et al., 2000) or Invivogen; also called HEK293/TLR4; cellular TLR4
Kind of assay: overnight incubation with HEK/TLR4 cells at 37 C, cell-associated radioactivity by liquid scintillation.

The target of assay [5] is T1, recombinant soluble TLR4 extracellular …. Kind of assay: culture medium of HEK293T cells secreting TLR4ECD spiked with [3H]LOS:sCD14, Sephacryl S200 gel filtration.

T1 sequence (O00206 24-634): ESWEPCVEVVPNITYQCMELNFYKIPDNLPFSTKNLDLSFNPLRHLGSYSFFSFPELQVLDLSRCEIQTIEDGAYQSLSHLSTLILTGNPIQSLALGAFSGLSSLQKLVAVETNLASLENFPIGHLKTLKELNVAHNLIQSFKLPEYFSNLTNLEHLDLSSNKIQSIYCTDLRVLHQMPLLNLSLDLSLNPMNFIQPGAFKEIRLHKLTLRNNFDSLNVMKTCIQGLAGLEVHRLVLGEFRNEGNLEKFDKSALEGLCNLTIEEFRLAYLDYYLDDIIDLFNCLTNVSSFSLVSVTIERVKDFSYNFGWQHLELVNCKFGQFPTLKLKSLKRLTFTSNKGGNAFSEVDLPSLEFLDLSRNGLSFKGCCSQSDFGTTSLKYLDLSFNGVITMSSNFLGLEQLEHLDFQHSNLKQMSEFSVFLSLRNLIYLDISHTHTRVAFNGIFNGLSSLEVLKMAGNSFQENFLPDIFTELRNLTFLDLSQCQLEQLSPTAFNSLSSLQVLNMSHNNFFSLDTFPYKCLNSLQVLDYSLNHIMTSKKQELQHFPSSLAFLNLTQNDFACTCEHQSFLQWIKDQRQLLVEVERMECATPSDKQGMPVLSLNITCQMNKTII
T2 sequence (O00206 24-839 limits assumed): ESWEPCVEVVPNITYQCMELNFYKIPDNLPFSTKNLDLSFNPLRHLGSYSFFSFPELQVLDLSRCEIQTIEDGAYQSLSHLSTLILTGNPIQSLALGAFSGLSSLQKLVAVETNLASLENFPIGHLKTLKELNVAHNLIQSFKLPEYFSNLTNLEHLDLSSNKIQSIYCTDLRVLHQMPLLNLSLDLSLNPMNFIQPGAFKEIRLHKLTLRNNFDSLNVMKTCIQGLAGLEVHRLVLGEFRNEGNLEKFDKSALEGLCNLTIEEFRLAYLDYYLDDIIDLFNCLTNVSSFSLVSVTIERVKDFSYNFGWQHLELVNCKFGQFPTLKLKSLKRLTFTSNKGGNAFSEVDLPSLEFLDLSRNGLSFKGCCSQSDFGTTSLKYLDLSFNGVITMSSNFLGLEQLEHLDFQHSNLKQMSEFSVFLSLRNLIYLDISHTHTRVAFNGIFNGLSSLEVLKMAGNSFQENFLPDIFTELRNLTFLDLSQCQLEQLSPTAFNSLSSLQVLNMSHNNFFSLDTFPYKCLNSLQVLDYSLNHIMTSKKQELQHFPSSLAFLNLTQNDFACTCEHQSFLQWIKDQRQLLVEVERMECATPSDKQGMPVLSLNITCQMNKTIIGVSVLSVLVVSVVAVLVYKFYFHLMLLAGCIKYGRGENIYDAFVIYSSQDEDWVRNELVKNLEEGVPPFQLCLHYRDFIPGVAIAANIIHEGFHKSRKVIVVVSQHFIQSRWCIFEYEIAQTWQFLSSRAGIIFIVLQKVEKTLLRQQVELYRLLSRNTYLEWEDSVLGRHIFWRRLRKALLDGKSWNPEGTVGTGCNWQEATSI
Chain of recombinant soluble TLR4 extracellular domain (amino acids 24-634), FLAG-tagged (UniProt O00206) (O00206 24-634): as the sequence (O00206 24-634) above

For “human MD-2 Y131A.K132A double mutant (from UniProt Q9Y6Y9 19-160)”, the reduction of the yield of ([^3H]LOS:MD-2/TLR4ECD)2 against the single mutants in assay [1] was 50%.

B1: monomeric complex of wild-type (hexa-acylated) N. meningitidis LOS with wild-type human MD-2-His6 (ligand)
chain: QKQYWVCNSSDASISYTYCDKMQYPISINVNPCIELKRSKGLLHIFYIPRRDLKQLYFNLYITVNTMNLPKRKEVICRGSDDDYSFCRALKGETVNTTISFSFKGIKFSKGKYKCVVEAISGSPEEMLFCLEFVILHQPNSNHHHHHH
notes: mature; Mr ~25,000; Radiolabel (3H or 14C) is on the LOS; also called [^3H]LOS:MD-2; [^3H]LOS:MD-2-His6
Usually Kd stands for the concentration at which binding is half-saturated. Regarding B1, the equilibrium dissociation constant (Kd) in assay [2] is below 0.3 nM.

B2: monomeric complex of wild-type LOS with human MD-2 F126A (ligand)
chain: QKQYWVCNSSDASISYTYCDKMQYPISINVNPCIELKRSKGLLHIFYIPRRDLKQLYFNLYITVNTMNLPKRKEVICRGSDDDYSFCRALKGETVNTTISFSFKGIKASKGKYKCVVEAISGSPEEMLFCLEFVILHQPNSN
notes: mature; Made in HEK293T cells (MD-2-FLAG-His) for analytical work and in High Five insect cells for preparative amounts; also called LOS:MD-2^F126A; [^3H]LOS:MD-2^F126A; not shown: C-terminal tag: pEF-BOS-MD-2^F126A-FLAG-His insert moved into pBAC11; which tag
For B2, the Kd in assay [3] was around 0.2 nM.

B3: monomeric complex of LOS with soluble CD14 (other)
chain: TTPEPCELDDEDFRCVCNFSEPQPDWSEAFQCVSAVEVEIHAGGLNLEPFLKRVDADADPRQYADTVKALRVRRLTVGAAQVPAQLLVGALRVLAYSRLKELTLEDLKITGTMPPLPLEATGLALSSLRLRNVSWATGRSWLAELQQWLKPGLKVLSIAQAHSPAFSCEQVRAFPALTSLDLSDNPGLGERGLMAALCPHKFPAIQNLALRNTGMETPTGVCAALAAAGVQPHSLDLSHNSLRATVNPSAPRCMWSSALNSLNLSFAGLEQVPKGLPAKLRVLDLSCNRLNRAPQPDELPEVDNLTLDGNPFLVPGTALPHEGSMNSGVVPACARSTLSVGVSGTLVL
notes: Mr ~60,000; also called LOS:sCD14; [^3H]LOS:sCD14
B3: the binding result in assay [4] is “no binding (tested: 0.75 ng/ml ^3H-LOS)”; in assay [5], “no binding (tested: 1 nM [^3H]LOS:sCD14)”.
